Experimental data published in the supplement of paper PMC12042874.
± gives the uncertainty stated by the source.

Experiment: amyloid nucleation score (Sup35N fusion, yeast selection) (log enrichment); library NNK3; higher = more nucleation; inactive = no reads after selection
Outline: (§1)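 The nucleation score, computed with DiMSum, is the log enrichment of output over input reads, centred on the mode score of non-aggregating sequences. Sequences with under 100 input reads were dropped. Reads were generated by Illumina sequencing of plasmid inserts from psi-negative yeast with Sup35N fused to peptides of 20 random codons, induced with 100 μM copper sulfate for 24 hours and grown 7 days at 30°C on medium lacking adenine and uracil.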

Substance	amyloid nucleation score
SYGPRPYTHHSPHAAGMTLE	inactive
TGTFDRWDPVTAGLPTGLGE	inactive
TLSMSWDLTKHFAVVTESRG	inactive
AVLHMSCNWDKQFYNLLCFC	inactive
YWVTLFRSARVWMITLNLFD	inactive
YYFTFFIKCMRNIMVNSMAA	inactive
CFFSRFILYPSLTLYMTMLR	inactive
TNNQNSDRFGVTVPSLTFVR	inactive
VDSSMDLHSIS	inactive
VTRIW	inactive
LGRCRWMDPHILLVLHVPCE	inactive
SFVSSMCVTGEKVEGSRPCC	inactive
AKATMPIT	inactive
QEGGRWEPQKGRWESQAYLS	-0.062 ± 0.49
IGIDMMMESKLYSCCNLDMY	1.38 ± 0.078
CLNFFPSNSWILFILMIVQK	inactive
LCIPVDFVGGTIRLCVL	inactive
TVRKSSIGGCVASYPFEHNK	inactive
RVRYGGNKMHNSRKLACGQG	0.743 ± 0.18
NEHSYLSGSWYPRSHLIYYC	inactive
RKMDLVDKSMSTIGYLAHHG	-0.63 ± 0.82
SVMSLDVVMVVRYFY	0.999 ± 0.12
AWSGFE	0.01 ± 1.2
VHKFDSL	inactive
ETECVFSDYHSKVNICGGSL	inactive

Substance	amyloid nucleation score
SRLNFVLVSMQD	inactive
ACFLVFGIYQEVMHDCIGRS	inactive
WYHGKWYLDLNYVVPVTQWK	inactive
CMVCYLLPGSVSTCSCVRGI	2.75 ± 0.064
SEQVMRTRDSTRAKSGLNVI	0.569 ± 0.22
LRASTPYHPMLFELGKLALI	inactive
RFAVTSVMLTSETRDGFDHA	inactive
MVGVGSKLGLLAATEVWNEI	inactive
EVDFVALIPCSQTVLFTVEV	inactive
DHVGADMGLCDNVG	inactive
CFRCFGKGCHILAYGVYC	inactive
YSFAVPSNLLLLK	-0.302 ± 0.52
RLTGCRWDSPVTKVNIRWVY	inactive
SIISMDKDRTLAHTDHQV	inactive
FFVNYHVGIFMSIYQIFVYV	inactive
VSCESECLLLMIKKYFGSDS	0.12 ± 0.26
FNVSTGCRWSWAPDHSPCQE	-0.058 ± 0.66
RDRPKFII	inactive
MSQCFVCRFAFLIN	1.57 ± 0.067
RKHLRPQSMRVDSGETLRVL	inactive
ISHVEYLVLEPSMVYF	-0.349 ± 0.59
NGWNVMYLFMCRVNSARSIL	1.77 ± 0.081
FIIITKAFYRGTKMGGNTYS	-0.427 ± 0.73
FLSLWLCSRCVSKSCGGFML	inactive
DGKQVRGPGVAQSGANNGLE	inactive

Substance	amyloid nucleation score
YYFRAQADCFMYICVLDLDG	inactive
RVCDMVNTASWAIICSCLHL	2.05 ± 0.068
DTFMDSMLYTGLSIPCKVLL	-0.116 ± 1.4
TLIQFSLMCVYFSDFLPKAF	inactive
ILDAMDTLLRYSGCDRLSWK	inactive
SGLSSRNSYTFVSKRVVGVR	inactive
DDIRCMFRTADFRAKMSVNS	inactive
SYDGWCVTYFDV	inactive
VSVIWSMMCIRIITISCGRV	inactive
RVDSYVSMTYHIRWFFVRTE	inactive
LCMFPLIWFILLFRFFKLWG	inactive
FWNVLWATRLYFFSFYDITS	inactive
EHVRVYFVLDYFDFCQAPAG	inactive
LYVWLAWYWVYPINHALVVC	inactive
GSCKVADAPCSHARR	-0.331 ± 1.3
DVVGLVAGIVVKLILCSHYG	inactive
CIIFYCIYGFN	3.04 ± 0.073
QLYVTPYLRDVWYDQASSYE	inactive
RVKQQLNLP	inactive
LLESTSF	inactive
TYLEMDIAPAMRLCS	inactive
TNKASLFSPAEHIYGKS	inactive
AYVSHINDMPAFGPKSNKPS	-0.19 ± 0.81
FRGEMLFKVQF	0.275 ± 0.27
GTLCTETHGT	inactive

Substance	amyloid nucleation score
HPMRGDVGSRAVFRMGHFIH	inactive
YIPVSTFM	-0.135 ± 0.6
NCQLLKLDSGSLSLCRWVHS	inactive
CHLCGMYSVCFLARSRLVLE	0.067 ± 0.77
ESTIEMIAL	1.25 ± 0.11
TTFFGCSFGLCRAIIGLDNV	1.34 ± 0.076
GFYWYTVFAVSLDDCLSKSS	inactive
MQAQRKYMSMRNRYQVAKVE	inactive
SFMVIIYAVERVIVGITGKS	0.611 ± 0.16
LRSDMLVVPRIFFACFWSIK	inactive
DKKGK	inactive
FVLIPSHRAW	inactive
FLVVVSF	inactive
VDKLFCWGLYGLATVDNRVY	inactive
CNFVNSKRNFLYTLG	inactive
SCFCNVFVVDMMSLSMGDIL	2.4 ± 0.05
YYWCFSF	2.23 ± 0.06
VCSMWSSSSMIKLRALDDYM	inactive
CASSNRRESSYVLYSQWDIG	inactive
NYNRAPMGTAET	inactive
SPTLPGCLVLEIINDNI	inactive
MICSLTSHRKRN	inactive
HRMRLSCCTAFDTLVMIPIS	0.482 ± 0.17
IFHLKIAYFPNYGRITLYYL	1.65 ± 0.091

Experiment: amyloid nucleation score (Sup35N fusion, yeast selection) (log enrichment); library NNK2; higher = more nucleation; inactive = no reads after selection
Outline: as §1

Substance	amyloid nucleation score
LIPVTGAMGSN	0.183 ± 0.4
QYWTNRCKDWERVSRKPLKL	inactive
MQTICSN	-1.13 ± 1
YGMQLFC	3.95 ± 0.082
TMSQYLGNRCTTNGYSFGVS	-0.272 ± 1.1
ELTTTTTYVRKVFCLYFS	8.422 ± 0.047
TISDTCHESRLDVMRNVPYM	5.091 ± 0.043
QMICFHSWLGGSSLTVFHHC	3.84 ± 0.12
KNKTL	0.576 ± 0.46
FLFMLLSPVSMARLDKVMMG	0.313 ± 0.65
MLCGINGMMSSTLVCGRAII	-0.161 ± 0.65
EYQLDHVY	-0.711 ± 1.1
MMGLGKCR	1.36 ± 0.33
FSMPLLALAFLL	inactive
VILYGFNKVMECSTYVVV	-0.804 ± 1.1
YIVYCLFDLLTPNKMWLSPQ	-0.661 ± 0.76
ALKNLHAHTG	0.015 ± 0.8
SMTDRFPSIIYRECILWVTW	-0.035 ± 0.76
SFRRSE	-0.388 ± 1
CFDKLAVMACKSSGWHNPPT	0.75 ± 0.43
